From patent US20240391984A1

Experiments:
[1] = biological target: polyclonal IgG (Gammanorm, Octapharma, Sweden); test: SPR (Biacore 8K+), variant amine-coupled to CM5, Gammanorm as analyte, steady state fit
[2] = biological target: polyclonal IgG (Gammanorm, Octapharma, Sweden); test: SPR (Biacore 8K+), variant amine-coupled to CM5, Gammanorm as analyte, 1:1 kinetic fit

| Binder | Kd [1] [nM] | Kd [2] [nM] |
| --- | --- | --- |
| pAM179 (D1 domain; pos 10 Y, pos 45 H, pos 60 Y) (designed binder) PKEEVTIKAYLIFADGKTQTAEFKGTFEEATAEAYRYADLLAKVHGEYTADLEDGGYTIYIKFAGKEQPGEN | 75 | – |
| pAM117 (B3 domain of Protein L; pos 10 N, pos 45 N, pos 60 Q) (designed binder) PKEEVTIKANLIYADGKTQTAEFKGTFEEATAEAYRYADLLAKENGKYTVDVADKGYTLQIKFAGKEKTPEE | 60 | 18 |
| pAM156 (B2 domain of Protein L; pos 10 Q, pos 45 A, pos 60 Q) (designed binder) PKEEVTIKAQLIYADGKTQTAEFKGTFEEAAAEAYRYADALKKDAGEYTVDVADKGYTLQIKFAGKEKTPEE | 92 | – |
| pAM126 (B3 domain of Protein L; pos 10 Q, pos 45 N, pos 60 Q) (designed binder) PKEEVTIKAQLIYADGKTQTAEFKGTFEEATAEAYRYADLLAKENGKYTVDVADKGYTLQIKFAGKEKTPEE | 52 | 16 |
| pAM128 (previously disclosed benchmarking Protein L ligand; B3 domain with pos 10 Q, pos 45 A, pos 60 Q) (designed binder) PKEEVTIKAQLIYADGKTQTAEFKGTFEEATAEAYRYADLLAKEAGKYTVDVADKGYTLQIKFAGKEKTPEE | 60 | 17 |
| pAM119 (B3 domain of Protein L; pos 10 N, pos 45 A, pos 60 Q) (designed binder) PKEEVTIKANLIYADGKTQTAEFKGTFEEATAEAYRYADLLAKEAGKYTVDVADKGYTLQIKFAGKEKTPEE | 58 | 16 |
| pAM130 (B3 domain of Protein L; pos 10 Q, pos 45 H, pos 60 Q) (designed binder) PKEEVTIKAQLIYADGKTQTAEFKGTFEEATAEAYRYADLLAKEHGKYTVDVADKGYTLQIKFAGKEKTPEE | 57 | 19 |
| pAM134 (B3 domain of Protein L; pos 10 Y, pos 45 H, pos 60 N) (designed binder) PKEEVTIKAYLIYADGKTQTAEFKGTFEEATAEAYRYADLLAKEHGKYTVDVADKGYTLNIKFAGKEKTPEE | 55 | 18 |
| pAM124 (B3 domain of Protein L; pos 10 Q, pos 45 A, pos 60 N) (designed binder) PKEEVTIKAQLIYADGKTQTAEFKGTFEEATAEAYRYADLLAKEAGKYTVDVADKGYTLNIKFAGKEKTPEE | 51 | 12 |
| pAM169 (B2 domain of Protein L; pos 10 Y, pos 45 H, pos 60 Y) (designed binder) PKEEVTIKAYLIYADGKTQTAEFKGTFEEAAAEAYRYADALKKDHGEYTVDVADKGYTLYIKFAGKEKTPEE | 76 | – |
| pAM146 (C1 domain of Protein L; pos 10 N, pos 45 N, pos 60 N) (protein) PEEEVTIKANLIFADGSTQNAEFKGTFAKAVSDAYAYADALKKDNGEYTVDVADKGLTLNIKFAGKKEKPEE | 61 | – |
| pAM159 (C1 domain of Protein L; pos 10 Q, pos 45 A, pos 60 Q) (designed binder) PEEEVTIKAQLIFADGSTQNAEFKGTFAKAVSDAYAYADALKKDAGEYTVDVADKGLTLQIKFAGKKEKPEE | 103 | – |
| pAM172 (C1 domain of Protein L; pos 10 Y, pos 45 H, pos 60 Y) (designed binder) PEEEVTIKAYLIFADGSTQNAEFKGTFAKAVSDAYAYADALKKDHGEYTVDVADKGLTLYIKFAGKKEKPEE | 110 | – |
| pAM154 (B1 domain of Protein L; pos 10 Q, pos 45 A, pos 60 Q) (designed binder) SEEEVTIKAQLIFANGSTQTAEFKGTFEKATSEAYAYADTLKKDAGEYTVDVADKGYTLQIKFAGKEKTPEE | 65 | – |
| pAM167 (B1 domain of Protein L; pos 10 Y, pos 45 H, pos 60 Y) (designed binder) SEEEVTIKAYLIFANGSTQTAEFKGTFEKATSEAYAYADTLKKDHGEYTVDVADKGYTLYIKFAGKEKTPEE | 97 | – |
| pAM175 (C2 domain of Protein L; pos 10 Y, pos 45 H, pos 57 Y, pos 60 Y) (designed binder) PKEEVTIKVYLIFADGKTQTAEFKGTFEEATAKAYAYADLLAKEHGEYTADLEDGGYTIYIKFAGKETPETPEE | 57 | – |
| pAM163 (C3 domain of Protein L; pos 10 Q, pos 45 A, pos 60 Q) (designed binder) PKEEVTIKVQLIFADGKIQTAEFKGTFEEATAKAYAYANLLAKEAGEYTADLEDGGNTIQIKFAGKETPETPEE | 188 | – |
| pAM174 (C2 domain of Protein L; pos 10 Y, pos 45 H, pos 60 Y) (designed binder) PKEEVTIKVYLIFADGKTQTAEFKGTFEEATAKAYAYADLLAKEHGEYTADLEDGGNTIYIKFAGKETPETPEE | 105 | – |
| pAM177 (C3 domain of Protein L; pos 10 Y, pos 39 D, pos 45 H, pos 57 Y, pos 60 Y) (designed binder) PKEEVTIKVYLIFADGKIQTAEFKGTFEEATAKAYAYADLLAKEHGEYTADLEDGGYTIYIKFAGKETPETPEE | 58 | – |
| pAM176 (C3 domain of Protein L; pos 10 Y, pos 45 H, pos 60 Y) (designed binder) PKEEVTIKVYLIFADGKIQTAEFKGTFEEATAKAYAYANLLAKEHGEYTADLEDGGNTIYIKFAGKETPETPEE | 137 | – |
| pAM161 (C2 domain of Protein L; pos 10 Q, pos 45 A, pos 60 Q) (designed binder) PKEEVTIKVQLIFADGKTQTAEFKGTFEEATAKAYAYADLLAKEAGEYTADLEDGGNTIQIKFAGKETPETPEE | 110 | – |

Results, then the binder that gave them:

| Kd [1] [nM] | Kd [2] [nM] | Binder |
| --- | --- | --- |
| 32 | – | pAM153 (D1 domain; pos 10 N, pos 45 N, pos 60 N) (protein) PKEEVTIKANLIFADGKTQTAEFKGTFEEATAEAYRYADLLAKVNGEYTADLEDGGYTINIKFAGKEQPGEN |
| 41 | – | pAM166 (D1 domain; pos 10 Q, pos 45 A, pos 60 Q) (designed binder) PKEEVTIKAQLIFADGKTQTAEFKGTFEEATAEAYRYADLLAKVAGEYTADLEDGGYTIQIKFAGKEQPGEN |
| 51 | 12 | pAM115 (B3 domain of Protein L; pos 10 N, pos 45 A, pos 60 N) (designed binder) PKEEVTIKANLIYADGKTQTAEFKGTFEEATAEAYRYADLLAKEAGKYTVDVADKGYTLNIKFAGKEKTPEE |
| 51 | 13 | pAM123 (B3 domain of Protein L; pos 10 Q, pos 45 N, pos 60 N) (designed binder) PKEEVTIKAQLIYADGKTQTAEFKGTFEEATAEAYRYADLLAKENGKYTVDVADKGYTLNIKFAGKEKTPEE |
| 51 | 14 | pAM116 (B3 domain of Protein L; pos 10 N, pos 45 H, pos 60 N) (designed binder) PKEEVTIKANLIYADGKTQTAEFKGTFEEATAEAYRYADLLAKEHGKYTVDVADKGYTLNIKFAGKEKTPEE |
| 36 | – | pAM143 (B2 domain of Protein L; pos 10 N, pos 45 N, pos 60 N) (protein) PKEEVTIKANLIYADGKTQTAEFKGTFEEAAAEAYRYADALKKDNGEYTVDVADKGYTLNIKFAGKEKTPEE |
| 11 | – | pAM145 (B5 domain of Protein L with H45N backbone; pos 10 N, pos 45 N, pos 60 N) (designed binder) KEQVTIKENIYFEDGTVQTATFKGTFAEATAEAYRYADLLSKENGKYTADLEDGGYTINIRFAGKEEPEE |
| 40 | – | pAM171 (B5 domain of Protein L; pos 10 Y, pos 45 H, pos 60 Y) (designed binder) KEQVTIKEYIYFEDGTVQTATFKGTFAEATAEAYRYADLLSKEHGKYTADLEDGGYTIYIRFAGKEEPEE |
| 24 | – | pAM158 (B5 domain of Protein L; pos 10 Q, pos 45 A, pos 60 Q) (designed binder) KEQVTIKEQIYFEDGTVQTATFKGTFAEATAEAYRYADLLSKEAGKYTADLEDGGYTIQIRFAGKEEPEE |
| 21 | – | pAM180 (B5 domain of Protein L; pos 10 N, pos 45 H, pos 60 N) (protein) KEQVTIKENIYFEDGTVQTATFKGTFAEATAEAYRYADLLSKEHGKYTADLEDGGYTINIRFAGKEEPEE |
| 48 | – | pAM141 (B1 domain of Protein L; pos 10 N, pos 45 N, pos 60 N) (protein) SEEEVTIKANLIFANGSTQTAEFKGTFEKATSEAYAYADTLKKDNGEYTVDVADKGYTLNIKFAGKEKTPEE |
| 38 | – | pAM144 (B4 domain of Protein L; pos 10 N, pos 45 N, pos 60 N) (protein) PKEEVTIKANLIYADGKTQTAEFKGTFAEATAEAYRYADLLAKENGKYTADLEDGGYTINIRFAGKKVDEKPEE |
| 49 | – | pAM170 (B4 domain of Protein L; pos 10 Y, pos 45 H, pos 60 Y) (designed binder) PKEEVTIKAYLIYADGKTQTAEFKGTFAEATAEAYRYADLLAKEHGKYTADLEDGGYTIYIRFAGKKVDEKPEE |
| 38 | – | pAM157 (B4 domain of Protein L; pos 10 Q, pos 45 A, pos 60 Q) (designed binder) PKEEVTIKAQLIYADGKTQTAEFKGTFAEATAEAYRYADLLAKEAGKYTADLEDGGYTIQIRFAGKKVDEKPEE |
| 35 | – | pAM148 (C2 domain of Protein L; pos 10 N, pos 45 N, pos 60 N) (protein) PKEEVTIKVNLIFADGKTQTAEFKGTFEEATAKAYAYADLLAKENGEYTADLEDGGNTINIKFAGKETPETPEE |
| 45 | – | pAM149 (C2 domain of Protein L; pos 10 N, pos 45 N, pos 57 Y, pos 60 N) (designed binder) PKEEVTIKVNLIFADGKTQTAEFKGTFEEATAKAYAYADLLAKENGEYTADLEDGGYTINIKFAGKETPETPEE |
| 30 | – | pAM151 (C3 domain of Protein L; pos 10 N, pos 39 D, pos 45 N, pos 57 Y, pos 60 N) (designed binder) PKEEVTIKVNLIFADGKIQTAEFKGTFEEATAKAYAYADLLAKENGEYTADLEDGGYTINIKFAGKETPETPEE |
| 39 | – | pAM164 (C3 domain of Protein L; pos 10 Q, pos 39 D, pos 45 A, pos 57 Y, pos 60 Q) (designed binder) PKEEVTIKVQLIFADGKIQTAEFKGTFEEATAKAYAYADLLAKEAGEYTADLEDGGYTIQIKFAGKETPETPEE |
| 40 | – | pAM150 (C3 domain of Protein L; pos 10 N, pos 45 N, pos 60 N) (protein) PKEEVTIKVNLIFADGKIQTAEFKGTFEEATAKAYAYANLLAKENGEYTADLEDGGNTINIKFAGKETPETPEE |
| 39 | – | pAM162 (C2 domain of Protein L; pos 10 Q, pos 45 A, pos 57 Y, pos 60 Q) (designed binder) PKEEVTIKVQLIFADGKTQTAEFKGTFEEATAKAYAYADLLAKEAGEYTADLEDGGYTIQIKFAGKETPETPEE |
| 24 | – | pAM152 (C4 domain of Protein L; pos 10 N, pos 45 N, pos 60 N) (protein) PKEEVTIKVNLIFADGKTQTAEFKGTFEEATAEAYRYADLLAKVNGEYTADLEDGGYTINIKFAGKEQPGENPG |
| 38 | – | pAM165 (C4 domain of Protein L; pos 10 Q, pos 45 A, pos 60 Q) (designed binder) PKEEVTIKVQLIFADGKTQTAEFKGTFEEATAEAYRYADLLAKVAGEYTADLEDGGYTIQIKFAGKEQPGENPG |
| 45 | – | pAM178 (C4 domain of Protein L; pos 10 Y, pos 45 H, pos 60 Y) (designed binder) PKEEVTIKVYLIFADGKTQTAEFKGTFEEATAEAYRYADLLAKVHGEYTADLEDGGYTIYIKFAGKEQPGENPG |
